Data as given in article PMC6029887 (Cell reports, 2018).

Tests used:
[1] = molecular target: Cadherin-6 M3V Y20L H97Q E89P (VLQP) specificity mutant, adhesive fragment (mouse) (mouse); assay: AUC
[2] = molecular target: chimera cad-11EC16EC2 (cadherin-11 EC1 joined to cadherin-6 EC2) (mouse) (UniProt P97326); assay: AUC
[3] = molecular target: Cadherin-6 Y20L H97Q (LQ) specificity mutant, adhesive fragment (mouse) (mouse); assay: AUC
[4] = molecular target: cadherin-18 EC1-EC2 adhesive fragment (mouse), wild-type (mouse); assay: AUC
[5] = molecular target: Cadherin-11 V3M L20Y Q97H P89E (MYHE) specificity mutant, adhesive fragment (mouse) (mouse); assay: AUC
[6] = molecular target: chimera cad-6EC111EC2 (cadherin-6 EC1 joined to cadherin-11 EC2) (mouse); assay: AUC
[7] = molecular target: Cadherin-11 L20Y Q97H (YH) specificity mutant, adhesive fragment (mouse) (mouse); assay: AUC
AUC = molecular target: the molecule itself; assay: AUC
[8] = molecular target: T1, Cys-tagged cadherin-7 adhesive fragment (mouse) (mouse, UniProt Q8BM92 48-254); assay: SPR
T1 sequence: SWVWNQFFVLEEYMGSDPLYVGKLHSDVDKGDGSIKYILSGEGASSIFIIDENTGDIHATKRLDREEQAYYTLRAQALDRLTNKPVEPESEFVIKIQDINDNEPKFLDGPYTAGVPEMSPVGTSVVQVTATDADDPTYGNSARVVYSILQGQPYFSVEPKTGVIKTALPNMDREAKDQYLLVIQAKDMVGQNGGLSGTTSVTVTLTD

[9] = molecular target: T2, Cys-tagged cadherin-10 adhesive fragment (mouse) (mouse, UniProt P70408 55-261); assay: SPR
T2 sequence: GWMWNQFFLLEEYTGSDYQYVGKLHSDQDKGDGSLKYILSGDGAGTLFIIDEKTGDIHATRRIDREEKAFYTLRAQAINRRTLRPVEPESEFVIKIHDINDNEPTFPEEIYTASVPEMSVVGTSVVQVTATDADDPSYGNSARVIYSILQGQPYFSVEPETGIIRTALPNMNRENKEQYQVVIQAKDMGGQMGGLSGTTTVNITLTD

[10] = molecular target: T3, Cys-tagged cadherin-6 adhesive fragment (mouse) (mouse, UniProt P97326 54-260); assay: SPR
T3 sequence: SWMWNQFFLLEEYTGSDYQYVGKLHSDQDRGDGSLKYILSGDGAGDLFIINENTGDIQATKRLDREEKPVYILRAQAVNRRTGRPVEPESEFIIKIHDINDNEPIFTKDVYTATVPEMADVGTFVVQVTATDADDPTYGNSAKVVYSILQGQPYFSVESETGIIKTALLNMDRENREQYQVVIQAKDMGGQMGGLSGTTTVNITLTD

For “Cadherin-6 M3V Y20L H97Q E89P (VLQP) specificity mutant, adhesive fragment (mouse) (domain or fragment)”, which Kd [1] is on record?
Its Kd is 6.73 µM.

With “chimera cad-11EC16EC2 (cadherin-11 EC1 joined to cadherin-6 EC2) (from UniProt P97326 151-260) (domain or fragment)” as the molecule, how does the Kd [2] read?
Its Kd is 15.6 µM.

For “Cadherin-6 Y20L H97Q (LQ) specificity mutant, adhesive fragment (mouse) (domain or fragment)”, which Kd [3] is on record?
The Kd was 9.63 µM.

For “cadherin-18 EC1-EC2 adhesive fragment (mouse), wild-type (domain or fragment)”, which Kd [4] is on record?
Its Kd is 16.8 µM.

How did the Kd [5] turn out when “Cadherin-11 V3M L20Y Q97H P89E (MYHE) specificity mutant, adhesive fragment (mouse) (domain or fragment)” was run?
The Kd was 8.2 µM.

With “chimera cad-6EC111EC2 (cadherin-6 EC1 joined to cadherin-11 EC2) (domain or fragment)” as the molecule, how does the Kd [6] read?
Its Kd is 5.6 µM.

Which Kd [7] does the source give for “Cadherin-11 L20Y Q97H (YH) specificity mutant, adhesive fragment (mouse) (domain or fragment)” here?
The Kd was 11.1 µM.

B1: cadherin-22 EC1-EC2 adhesive fragment (mouse), wild-type (domain or fragment)
chain: GWVWNQFFVVEEYTGTEPLYVGKIHSDSDEGDGTIKYTISGEGAGTIFLIDELTGDIHATERLDREQKTFYTLRAQARDRATNRLLEPESEFIIKVQDINDSEPRFLHGPYIGSVAELSPTGTSVMQVMASDADDPTYGSSARLVYSVLDGEHHFTVDPKTGVIRTAVPDLDRESQERYEVVIQATDMAGQLGGLSGSTTVTIVVTD
For B1, which Kd (AUC) is on record?
Its Kd is 3.9 µM.

B2: cadherin-24 EC1-EC3 fragment (mouse), wild-type (domain or fragment)
chain: SWVWNQFFVIEEYSGPEPVLIGKLHSDVDRGEGRTKYLLTGEGAGTVFVIDEATGNIHVTKSLDREEKAQYVLLAQAVDRASNRPLEPPSEFIIKVQDINDNPPVFPLGPYHATVPEMSNVGTSVIQVTAHDADDPSYGNSAKLVYTVLDGLPFFSVDPQTGVVRTAIPNMDRETQEEFLVVIQAKDMGGHMGGLSGSTTVTVTLSDVNDNPPKFPQSLYQFSVVETAGPGTLVGRLKAQDPDLGDNALVAYSILNGEGSEVFSISTDSQGQDGLLTVRKPLDFETRRSYTFRVEATNTLIDPAYLRRGPFKDVASVRVTVQDAPEPPAF
Which Kd (AUC) does the source give for B2 here?
The Kd was 8.2 µM.

B3: cadherin-12 EC1-EC2 adhesive fragment (mouse), wild-type (domain or fragment)
chain: GWVWNQFFVLEEYMGSEPQYVGKLHSDLDKGEGTVKYTLSGDGAGTVFTIDETTGDIHAIRSLDREEKPFYTLRAQAVDIETRKPLEPESEFIIKVQDINDNEPKFLDGPYVASVPEMSPVGAYVLQVKATDADDPTYGNSARVVYSILQGQPYFSIDPKTGVIRTALPNMDREVKEQYQVLIQAKDMGGQLGGLAGTTVVNITLTDVNDNPPRF
With B3 as the molecule, how does the Kd (AUC) read?
The Kd was 8.3 µM.

B4: cadherin-6 EC1-EC2 adhesive fragment (mouse), wild-type (domain or fragment)
chain: SWMWNQFFLLEEYTGSDYQYVGKLHSDQDRGDGSLKYILSGDGAGDLFIINENTGDIQATKRLDREEKPVYILRAQAVNRRTGRPVEPESEFIIKIHDINDNEPIFTKDVYTATVPEMADVGTFVVQVTATDADDPTYGNSAKVVYSILQGQPYFSVESETGIIKTALLNMDRENREQYQVVIQAKDMGGQMGGLSGTTTVNITLTD
How did the Kd (AUC) turn out when B4 was run?
The Kd was 3.1 µM.

Does B4 bind [8]?
Result: binds

Does B4 bind [9]?
Result: binds

B5: cadherin-10 EC1-EC2 adhesive fragment (mouse), wild-type (domain or fragment)
chain: GWMWNQFFLLEEYTGSDYQYVGKLHSDQDKGDGSLKYILSGDGAGTLFIIDEKTGDIHATRRIDREEKAFYTLRAQAINRRTLRPVEPESEFVIKIHDINDNEPTFPEEIYTASVPEMSVVGTSVVQVTATDADDPSYGNSARVIYSILQGQPYFSVEPETGIIRTALPNMNRENKEQYQVVIQAKDMGGQMGGLSGTTTVNITLTD
What does the source list for B5?
Kd (AUC): 42.2 µM; binding result [10]: binds; binding result [8]: binds

B6: cadherin-9 EC1-EC2 adhesive fragment (mouse), wild-type (domain or fragment)
chain: GWMWNQFFLLEEYTGTDTQYVGKLHTDQDKGDGNLKYILTGDGAGNLFVIDENTGDIHAAKRLDREEKSLYILRAKAIDRKTGRQVEPESEFIIKIHDINDNEPKFTKDLYTASVPEMSGVGTSVIQVTATDADDANYGNSAKVVYSILQGQPYFSVDPESGIIKTALPDMSRENKEQYQVVIQAKDMGGQMGGLSGTTTVNITLTDVNNNPPRF
B6 was tested. Which Kd (AUC) did it give?
Its Kd is 17 µM.

B7: cadherin-8 EC1-EC3 fragment (mouse), wild-type (domain or fragment)
chain: GWVWNQMFVLEEFSGPEPILVGRLHTDLDPGSKKIKYILSGDGAGTIFQINDITGDIHAIKRLDREEKAEYTLTAQAVDFETNKPLEPPSEFIIKVQDINDNAPEFLNGPYHATVPEMSILGTSVTNVTATDADDPVYGNSAKLVYSILEGQPYFSIEPETAIIKTALPNMDREAKEEYLVVIQAKDMGGHSGGLSGTTTLTVTLTDVNDNPPKFAQSLYHFSVPEDVVLGTAIGRVKANDQDIGENAQSSYDIIDGDGTALFEITSDAQAQDGVIRLRKPLDFETKKSYTLKVEAANIHIDPRFSSRGPFKDTATVKIVVEDADEPPVF
For B7, which Kd (AUC) is on record?
The Kd was 15 µM.

B8: cadherin-7 EC1-EC2 adhesive fragment (mouse), wild-type (domain or fragment)
chain: SWVWNQFFVLEEYMGSDPLYVGKLHSDVDKGDGSIKYILSGEGASSIFIIDENTGDIHATKRLDREEQAYYTLRAQALDRLTNKPVEPESEFVIKIQDINDNEPKFLDGPYTAGVPEMSPVGTSVVQVTATDADDPTYGNSARVVYSILQGQPYFSVEPKTGVIKTALPNMDREAKDQYLLVIQAKDMVGQNGGLSGTTSVTVTLTD
B8 was tested. Which Kd (AUC) did it give?
Its Kd is 32.2 µM.

Does B8 bind [10]?
Result: binds

Does B8 bind [9]?
Result: binds

B9: cadherin-20 EC1-EC2 adhesive fragment (mouse), wild-type (domain or fragment)
chain: SWVWNQFFVLEEYTGTDPLYVGKLHSDMDRGDGSIKYILSGEGAGIVFTIDDTTGDIHAIQRLDREERAQYTLRAQALDRRTGRPMEPESEFIIKIQDINDNEPKFLDGPYIATVPEMSPVGTSVIQVTATDADDPTYGNSARVVYSILQGQPYFSVDSKTGVIRTALMNMDREAKEYYEVIIQAKDMGGQLGGLAGTTTVNITLSDVNDNPPRF
For B9, which Kd (AUC) is on record?
Its Kd is 9.3 µM.

B10: cadherin-11 EC1-EC2 adhesive fragment (mouse), wild-type (domain or fragment)
chain: GWVWNQFFVIEEYTGPDPVLVGRLHSDIDSGDGNIKYILSGEGAGTIFVIDDKSGNIHATKTLDREERAQYTLMAQAVDRDTNRPLEPPSEFIVKVQDINDNPPEFLHEIYHANVPERSNVGTSVIQVTASDADDPTYGNSAKLVYSILEGQPYFSVEAQTGIIRTALPNMDREAKEEYHVVIQAKDMGGHMGGLSGTTKVTITLTDVNDNPPKF
How did the Kd (AUC) turn out when B10 was run?
The Kd was 33.8 µM.
